Test results taken from patent publication US6462254.

Target: angiostatin-FLAG-HA (pMB281.1)
Test: ECL sandwich assay on 293 cell lysate, biotinylated anti-FLAG M2 capture

## anti-FLAG M2 monoclonal antibody (IBI/Kodak)
  ECL signal above background (fold above background): > 2
